A word on the Kd: it is the concentration at which binding is half-saturated. Low values mean tighter binding, high ones weaker binding.

To fix the notation:
B1: COVIC-260 (antibody, V domains shown)
VH: QVQLQESGPGLVKPSETLSLTCSVSGDSISSSDYSWGWIRQPPGKGLEWIGTIYYIKNTYYNPSLRSRVTLSVDTSKNLFSLKLSSVTAADTAVYYCARERPPFDVVVVPAARPYNWFDPWGLGTLVIVSS
VL: QSVLMQPPSVSGAPGQRVTISCTGSSSNIGAGYDVHWYQQLPGTAPKLLIYGNNNRPSGVPDRFSGSKSGTSASLAITGLQADDEADYYCQSYDSSLSGSKVFGGGTKLTVLG
B2: COVIC-96 (antibody, V domains shown)
VH: QVQLVQSGAEVKKPGSSVKVSCKASGGTFSTSTISWVRQAPGQGLEWMGGIIPLFGSPNYAQKFQGRVTITADESTSTAYMELSSLRFEDTAVYYCARLGQWDLLPRWGQGTLVTVSS
VL: EIVLTQSPGTLSLSPGERATLSCRASQSVSSSYLAWYQQKPGQAPRLLIYGASSRASGTPDRFSGRGSGTDFTLTISRLEPEDFAVYYCQQYGSSYTFGQGTKLEIK
B3: COVIC-267 (antibody, V domains shown)
VH: EVQLVESGGGLVQPGGSLRLSCTVSGFSLSSYAMSWVRQAPGKGLEWIGIIGNSGNTYYASWAKGRFTISRDNSKNTLYLQMNSLRAEDTAVYYCARNWDPDSYEYTYATNSFDPWGQGTLVTVSS
VL: DIQMTQSPSSLSASVGDRVTITCQASESISSYLAWYQQKPGKAPKLLIYRASTLESGVPSRFSGSGSGTDFTLTISSLQPEDFATYYCQCTYGSSSSGSYGNAFGGGTKVEIK
B4: COVIC-94 (antibody, V domains shown)
VH: EVQLVESGGGLVQPGGSLRLSCAASGFTFSPSWMGWFRQAPGKEREFVATINEYGGRNYADSVKGRFTISADNSKNTAYLQMNSLKPEDTAVYYCARVDRDFDYWGQGTLVTVSS
B5: COVIC-157 (antibody, V domains shown)
VH: EVQLVESGGGLIQPGGSLRLSCAASGFTVSSNYMNWVRQAPGKGLEWVSVIYSGGSTYYADSVKGRFTISRDNSKNTLYLQMNSLRTEDTAVYYCARDLVAYGMDVWGQGTTVTVSS
VL: DIQLTQSPSFLSASVGDRVTITCWASQGISSYLAWYQQKPGKAPKVLIYAASTLQSGVPSRFSGSGSGTEFTLTISSLQPEDFATYYCQLLNSNPLTFGGGTKVEIKR
B6: COVIC-150 (antibody, V domains shown)
VH: EVQLVESGGGLIQPGGSLRLSCAASGVTVSSNYMSWVRQAPGKGLEWVSVIYSGGSTFYADSVKGRFTISRDNSKNTLYLQMNSLRAEDTAVYYCARDLSYYGMDVWGQGTTVTVSS
VL: DIQLTQSPSFLSASVGDRVTITCWASQGISSYLAWYQQKPGKAPKLLIYAASTLQSGVPSKFSGSGSGTEFTLTISSLQPEDFATYYCQQLNSYPSSFGQGTKLEIKR
B7: COVIC-334 (antibody, V domains shown)
VH: QMQLVQSGPEVKKPGTSVKVSCKASGFTFSSSAVQWVRQARGQGLEWIGWIVVGSGNANYAQKLQERVSITRDMSTSTAYMELSSLRPEDTAVYYCAAPHCSRTICHDGFDMWGQGTMVTVSS
VL: EIVLTQSPGTLSLSPGERATLSCRASQSVRSSYLAWYQQKPGQAPRLLMFVASSRATGIPDRFSGSGSGTDFTLTISRLEPEDFAVYYCQQYDTSPWTFGQGTKVEIK
B8: COVIC-259 (antibody, V domains shown)
VH: EVQLVESGGGVVQPGRSLRLSCAASGFTFSSYAMHWVRQAPGKGLEWVAVLSYDGSNKYNADSVKGRFTISRDNSKNTLYLQMNSLRVEDTAMYYCARDGVSVTMVRGVIGPLCDYWGQGTLVTVSS
VL: not shown
B9: COVIC-148 (antibody, V domains shown)
VH: QVQLVQSGAEVKKPGASVKVSCKASGYTFTSYDINWVRQATGQGLEWMGWMNPNSGNTGYAQKFQGRVTMTRDTSINTAYMELSSLRSEDTAVYFCARGGRYCSDVTCYSGEPFDYWGQGTLVTVSS
VL: EIMLTQSPDFQSVTPKEKVTITCRASQSIGSSLHWYQQKPDQSPKLLIKFASQSISGVPSRFSGSGSGTDFTLTINSLEAEDAAAYYCHQSSSLPHTFGPGTKVEIKR
B10: COVIC-298 (antibody, V domains shown)
VH: EVQLVQSGAEVKKPGESLKISCQGSGFSFSNYWIGWVRQMPGKGLEWMGIIYPDDSDTRYSPSFQGQVTISADKSISTAFLQWSSLKASDTAMYYCATRTGWTNDAFDIWGQGTMVTVSS
VL: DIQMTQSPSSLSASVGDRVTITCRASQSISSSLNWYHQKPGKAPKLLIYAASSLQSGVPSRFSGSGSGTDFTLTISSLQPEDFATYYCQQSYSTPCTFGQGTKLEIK
B11: COVIC-361 (antibody, V domains shown)
VH: EVQLVESGGGLVQPGGSLRLSCKASGISVAPHAVTWVRQAPGKGLEWIGVIASNADTYYASWAKGRFTISRDNSKNTLYLQMNSLRAEDTAVYYCARHPGSAGYGYTYYYAMDPWGQGTLVTVSS
VL: DIQMTQSPSSLSASVGDRVTITCQASQDVKYAINWYQQKPGKAPKLLIYGTSSRGEGVPSRFSGSGSGTDYTLTISSLQPEDFATYYCQQGYVVSIFFGGGTKVEIK
B12: COVIC-56 (antibody)
chain 1: not shown
chain 2: QVQLQESGGGLVQAGGSLRLSCAASGRTFSEYAMGWFRQAPGKEREFVATISWSGGSTYYTDSVKGRFTISRDNAKNTVYLQMNSLKPDDTAVYYCAAAGLGTVVSEWDYDYDYWGQGTQVTVSSGGGGSGGGGSKRTVAAPSVFIFPPSDEQLKSGTASVVCLLNNFYPREAKVQWKVDNALQSGNSQESVTEQDSKDSTYSLSSTLTLSKADYEKHKVYACEVTHQGLSSPVTKSFNRGEC
B13: COVIC-338 (antibody, V domains shown)
VH: EVQLVESGGGLVQPGRSLRLSCAASGLTFEDYAMHWVRQPPGKGLEWVSGVSWNSGTIGYADSVKGRFTISRDNAKNSLYLHMRSLGAEDTAMYYCAKDMGGRFSFFSLENDAFDIWGQGTMVIVSS
VL: SYELTQPPSVSVSPGQTARITCSGDALPKQSTYWYQQKPGQAPVLVIYKDIERPSGIPERFSGSSSGTTVTLTISGVQAEDEADYYCQSADSSDTYVFGTGTKVTVL
B14: COVIC-301 (antibody, V domains shown)
VH: EVQLVESGGGLIQPGGSLRLSCAASGVTVSSNYMSWVRQAPGKGLEWVSIIYPGGSRFYADSVKGRFTISRDNSKNTLYLQMNSLRAEDTAVYYCAREVRGWLDPWGQGTLVTVSS
VL: DVVMTQSPSFLSASVGDRVTITCRASQGISNYLAWYQQKPGKAPKLLIYASSTLQSGVPSRFSGSGSGTEFTLTISSLQPEDFATYYCQHLNSYPHFGQGTRLEIKR
B15: COVIC-97 (antibody, V domains shown)
VH: EVQLVESGPEVKKPGTSVKVPCKASGFTFTSSAVQWVRQARGQRLEWIGWIVVGSGNTNYAQKFQERVTITRDMSTSTAYMELSSLRSEDTAVYYCAAPSCSGGRCYDGFDIWGQGTMVTVSS
VL: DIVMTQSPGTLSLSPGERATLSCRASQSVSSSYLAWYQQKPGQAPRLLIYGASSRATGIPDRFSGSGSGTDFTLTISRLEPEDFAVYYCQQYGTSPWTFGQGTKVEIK
B16: COVIC-300 (antibody, V domains shown)
VH: EVQLVESGGGLIQPGGSLRLSCAASGFIVSSNYMSWVRQAPGKGLEWVSVIYSGGITYFADSVKGRFTISRDISKNTLYLQMNSLRAEDTAVYYCARDRRLPHYYYGLDVWGQGTTVTVSS
VL: QSVLTQPASVSGSPGQSITISCTGTSSDVGGYNYVSWYQQHPGKAPTLIIYEVTSRPSGVSNRFSGSKSGNTASLTISGLQAEDEADYYCSSYTTSNTLGGVFGTGTKVTVL
B17: COVIC-335 (antibody, V domains shown)
VH: QVQLVESGGGVVQPGRSLRLSCAASGFTFSRYGMHWVRQAPGKGLEWVALISSGGSNKYYADSVKGRFTISRDNSKNTLYLEMNSLRAEDTAVYYCAKDAIYDYIWGAYRENWFDPWGQGTLVTVSS
VL: DIQMTQSPSSLSASVGDRVTITCRASQSISNYLNWYQQKPGKAPNLLIYAASSLQSGVPSRFSGSGSGTDFTLTISSLQPEDFATYYCQQTSSPPLTFGQGTKVEIK

For the assay, the target named is SARS-CoV-2 spike RBD (Wuhan-Hu-1) (Severe acute respiratory syndrome …, UniProt P0DTC2). Briefly: SPR. (SPR reads the build-up and loss of mass on a sensor chip optically.)
B1 registered a dissociation constant (Kd) of 0.0696 nM. For B2, binding was characterised by a dissociation constant (Kd) of 92.2 nM.

Take B3: the dissociation constant Kd worked out at 1.95 nM. On to B4, for which the Kd amounted to 5.62 nM. B5: the dissociation constant (Kd) amounted to 6.65 nM. The result for B6 reads 141 nM. As for B7, the dissociation constant Kd stood at 0.0568 nM. The molecule B8 displayed a Kd of 2.1 nM.

Molecule B9 displayed a Kd of 1.85 nM. For B10, binding was characterised by a dissociation constant (Kd) of 0.629 nM. B11 gave a Kd of 0.0241 nM. The result for B12 reads 94.2 nM. Consider B13, for which the Kd was found to be 0.00664 nM.

Regarding B14, binding was put at a Kd of 1.55 nM. Molecule B15 returned a Kd of 4.96 nM. B16 returned a Kd of 1.13 nM. The result for B17 reads 9 nM.
